Test results taken from patent publication US20090263894A1 (AbbVie / Abbott, published 2009).
Where a chain is given by its changes, count along the chain named.

Columns and labels:
[1] = target: T1, NGAL rAg K15A displayed on yeast (human, UniProt P80188 21-198); experiment: flow cytometry, mAb titrated on yeast displaying NGAL; from the highest mAb concentration tested
T1 construct: Yeast display AGA2 fusion as m5
T1 chain: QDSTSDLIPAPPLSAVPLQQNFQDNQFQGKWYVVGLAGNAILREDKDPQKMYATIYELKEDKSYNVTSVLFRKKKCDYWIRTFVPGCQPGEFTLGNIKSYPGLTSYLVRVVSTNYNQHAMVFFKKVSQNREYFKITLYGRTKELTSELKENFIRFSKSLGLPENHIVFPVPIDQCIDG
Experimental: (§1) The side chain of each of the NGAL rAg residues identified from the epitope selections was altered by site-directed mutagenesis to alanine to confirm the functional epitope (direct contact residues) of each NGAL mAb subclone.
(§2) The change in Gibbs free binding energy (ΔΔG_Ala-WT) was determined to assess the energetic impact of each alanine substitution for mAb binding. The change in Gibbs free binding energy upon alanine substitution was calculated using the following equation [2],
(§3) For these experiments, observed fluorescence (F) was used to solve for KD using equation [1]. The KD derived from equation [1] one was then used in equation [2] to derive the change in Gibbs free binding energy upon alanine substitution. The KD is read from the abscissa of each of the curves at the inflection point.

[2] = target: T2, NGAL rAg R109A displayed on yeast (human, UniProt P80188 21-198); experiment: as above
T2 construct: Yeast display AGA2 fusion as m5
T2 chain: T1 chain with A15K, R109A
Experimental: as §1, §2, §3

[3] = target: T1, NGAL rAg K15A displayed on yeast; experiment: flow cytometry, mAb titrated on yeast displaying NGAL; highest mAb concentration tested listed as KD
Source text: as §1, §3

[4] = target: T2, NGAL rAg R109A displayed on yeast; experiment: as above
Source text: as §1, §3

ΔKD (KD against KD of WT) [1]: > 24500 fold
ΔΔG Ala-WT [1]: > 5.97 kcal/mol
ΔKD (KD against KD of WT) [2]: > 24500 fold
ΔΔG Ala-WT [2]: > 5.97 kcal/mol
Kd [3]: > 5 µM
Kd [4]: > 5 µM
B1: anti-NGAL monoclonal antibody 1-903-430 (antibody, V domains shown)
VH: KIQLVQSGPELKKPGETVKISCKASGYTFTNYGMNWVKQAPGKGLKWMGWININTGEPTYAEEFKGRFAFSLETSATTAFLQINNLKNEDTATYLCARDSYSGGFDYWGQGTIVTVSS
VL: DIVMTQSPSSLSVSAGEKVTLSCKSSQSLLISGDQKNYLAWYQQKPGQPPKLLIYGASTRDSGVPDRFTGSGSGADFTLTISSVQAEDLAVYYCQNDHSFPPTFGAGTKLELKR
